Patent publication US20030040043A1 (published 2003)
Numbering of substitutions follows the chain as printed. Names may count otherwise.

Molecular target: T1, GAL4bd-FtsA fusion (E. coli, UniProt P04386 1-147; P0ABH0 1-420)
T1 construct: also called pAS2-1-FtsA; SHp100
Assay: yeast two-hybrid, GAL4 system, plates lacking histidine and AT

B1: GAL4ad-FtsZ^D373G fusion (pGAD424) (other)
chain: MFEPMELTNDAVIKVIGVGGGGGNAVEHMVRERIEGVEFFAVNTDAQALRKTAVGQTIQIGSGITKGLGAGANPEVGRNAADEDRDALRAALEGADMVFIAAGMGGGTGTGAAPVVAEVAKDLGILTVAVVTKPFNFEGKKRMAFAEQGITELSKHVDSLITIPNDKLLKVLGRGISLLDAFGAANDVLKGAVQGIAELITRPGLMNVDFADVRTVMSEMGYAMMGSGVASGEDRAEEAAEMAISSPLLEDIDLSGARGVLVNITAGFDLRLDEFETVGNTIRAFASDNATVVIGTSLDPDMNDELRVTVVATGIGMDKRPEITLVTNKQVQQPVMDRYQQHGMAPLTQEQKPVAKVVNDNAPQTAKEPDYLGIPAFLRKQAD
notes: also called pGAD424-FtsZ^D373G; SHp201
B1: no binding.

B2: GAL4ad-FtsZ^D373G,P375L fusion (pGAD424) (other)
chain: B1 chain with P375L
notes: also called pGAD424-FtsZ^D373G,P375L; SHp203
B2: no binding.
